Laboratory results: patent publication US20030119716A1, “Methods for screening, treating and diagnosing G-protein coupled receptor-related disorders and compositions thereof” (Wyeth, priority 2001, published 2003)

Tested on: c-fos SRE activation in CHO cells stably expressing D2R
Test: SRE-luciferase reporter assay, quinpirole-stimulated c-fos SRE activation in CHO-D2R cells
Assay type: cell-based, Chinese hamster
Conditions: for effect of RGS transfection on quinpirole dose-response curve of SRE activation: RGS (2 μg) transfected alone, no Gα co-transfection; for reduction in SRE activation: RGS co-expressed with Gαq/i chimera

Molecule	effect of RGS transfection on quinpirole dose-response curve of SRE activation	reduction in quinpirole-stimulated SRE activation (RGS co-expressed with Gαi1, 100 nM quinpirole)	reduction in SRE activation	inhibition (attenuation) of SRE activation (RGS co-transfected with Gαi1, all quinpirole concentrations used (10 nM-100 μM))	reduction in quinpirole-stimulated SRE activation (RGS transfected without Gαi1 co-transfection, 100 nM quinpirole)
RGS4: human RGS4 expressed from pCR3.1; potent GAP for both Gαq and Gαi (protein) MCKGLAGLPASCLRSAKDMKHRLGFLLQKSDSCEHNSSHNKKDKVVICQRVSQEEVKKWAESLENLISHECGLAAFKAFLKSEYSEENIDFWISCEEYKKIKSPSKLSPKAKKIYNEFISVQATKEVNLDSCTREETSRNMLEPTITCFDEAQKKIFNLMEKDSYRRFLKSRFYLDLVNPSSCGAEKQKGAKSSADCASLVPQCA	rightward shift of the dose-response curve	approximately 85%	about 60%	> 80%	approximately 40%
RGS2: human RGS2 expressed from pCR3.1; selective GAP for Gαq (protein) MQSAMFLAVQHDCRPMDKSAGSGHKSEEKREKMKRTLLKDWKTRLSYFLQNSSTPGKPKTGKKSKQQAFIKPSPEEAQLWSEAFDELLASKYGLAAFRAFLKSEFCEENIEFWLACEDFKKTKSPQKLSSKARKIYTDFIEKEAPKEINIDFQTKTLIAQNIQEATSGCFTTAQKRVYSLMENNSYPRFLESEFYQDLCKKPQITTEPHAT	rightward shift of the dose-response curve	–	approximately 70%	–	–
RGSz1: human RGSz1 expressed from pCR3.1; highly selective for Gαz (protein) MPQLSQDNQECLQKHFSRPSIWTQFLPLFRAQRYNTDIHQITENEGDLRAVPDIKSFPPAQLPDSPAAPKLFGLLSSPLSSLARFFSHLLRRPPPEAPRRRLDFSPLLPALPAARLSRGHEELPGRLSLLLGAALALPGRPSGGRPLRPPHPVAKPREEDATAGQSSPMPQMGSERMEMRKRQMPAAQDTPGAAPGQPGAGSRGSNACCFCWCCCCSCSCLTVRNQEDQRPTIASHELRADLPTWEESPAPTLEEVNAWAQSFDKLMVTPAGRNAFREFLRTEFSEENMLFWMACEELKKEANKNIIEEKARIIYEDYISILSPKEVSLDSRVREVINRNMVEPSQHIFDDAQLQIYTLMHRDSYPRFMNSAVYKDLLQSLSEKSIEA	rightward shift of the dose-response curve	–	–	–	–
